In patent US20230383269A1 (DSM AUSTRIA, published 2023):
Substitutions are numbered along the chain they refer to. In names and notes the source's numbering stands.

B1: alpha/beta hydrolase variant of SEQ ID NO: 24 (F69Y, N167T, F168Y, S174C, D179E, A182C, A183R, K186R, A187R, F218Y) (enzyme)
chain: MTDQSPETRDIFVPHAFEEQQVDLGEVVMNYVEAGSADHPALLLLPEQTGSWWSYEPVIGLLAESFHVYAVDIRGQGRSTWTPKRYSLDNFGNDLVRFISLVVKRPVIVSGNSSGGVLAAWLSAYAMPGQIRAALCEDTPFFASELVPAHGHSVRQAAGPAFELYRTYLGDQWCVADWEGFCRAARRSPSKIMSLFPSSDEPPQNLKEYDPEWARAFYEGTVALHCPHDLMLSQVKTPILITHHARAVDPHSGDLLGALSDFQAERAQAIIESAGVPVEYASFPDALHMMHQFEPERFAEVLTSWVARLPADTPGAHHHHHH
notes: homo-tetramer; also called zearalenone-cleaving polypeptide
B2: alpha/beta hydrolase variant of SEQ ID NO: 31 (N167T, F168Y, S174C, D179E, A182C, A183R, K186R, A187R, F218Y, A281E) (enzyme)
chain: B1 chain with Y69F, A281E
notes: as for B1
B3: alpha/beta hydrolase variant of SEQ ID NO: 4 (N167S) (enzyme)
chain: B1 chain with Y69F, T167S, Y168F, C174S, E179D, C182A, R183A, R186K, R187A, Y218F
notes: as for B1
B4: alpha/beta hydrolase variant of SEQ ID NO: 7 (N167L) (enzyme)
chain: B1 chain with Y69F, T167L, Y168F, C174S, E179D, C182A, R183A, R186K, R187A, Y218F
notes: as for B1
B5: alpha/beta hydrolase variant of SEQ ID NO: 6 (N167C) (enzyme)
chain: B1 chain with Y69F, T167C, Y168F, C174S, E179D, C182A, R183A, R186K, R187A, Y218F
notes: as for B1
B6: alpha/beta hydrolase variant of SEQ ID NO: 27 (N167T, F168Y, S174C, D179E, A182C, A183R, K186R, A187R, F218Y, H225S) (enzyme)
chain: B1 chain with Y69F, H225S
notes: as for B1
B7: alpha/beta hydrolase variant of SEQ ID NO: 28 (N167T, F168Y, S174C, D179E, A182C, A183R, K186R, A187R, F218Y L230R) (enzyme)
chain: B1 chain with Y69F, L230R
notes: as for B1
B8: alpha/beta hydrolase variant of SEQ ID NO: 33 (N167T, F168Y, S174C, D179E, A182C, A183R, K186R, A187R, F218Y, S293S) (enzyme)
chain: B1 chain with Y69F, F293S
notes: as for B1
B9: alpha/beta hydrolase variant of SEQ ID NO: 25 (A126S, N167T, F168Y, S174C, D179E, A182C, A183R, K186R, A187R, F218Y) (enzyme)
chain: B1 chain with Y69F, A126S
notes: as for B1
B10: alpha/beta hydrolase variant of SEQ ID NO: 34 (N167T, F168Y, S174C, D179E, A182C, A183R, K186R, A187R, F218Y, S304R) (enzyme)
chain: B1 chain with Y69F, S304R
notes: as for B1
B11: alpha/beta hydrolase variant of SEQ ID NO: 29 (N167T, F168Y, S174C, D179E, A182C, A183R, K186R, A187R, F218Y, A245V) (enzyme)
chain: B1 chain with Y69F, A245V
notes: as for B1
B12: alpha/beta hydrolase variant of SEQ ID NO: 5 (N167A) (enzyme)
chain: B1 chain with Y69F, T167A, Y168F, C174S, E179D, C182A, R183A, R186K, R187A, Y218F
notes: as for B1
B13: alpha/beta hydrolase variant of SEQ ID NO: 26 (T139P N167T, F168Y, S174C, D179E, A182C, A183R, K186R, A187R, F218Y) (enzyme)
chain: B1 chain with Y69F, T139P
notes: as for B1
B14: alpha/beta hydrolase variant of SEQ ID NO: 3 (N167T) (enzyme)
chain: B1 chain with Y69F, Y168F, C174S, E179D, C182A, R183A, R186K, R187A, Y218F
notes: as for B1
B15: alpha/beta hydrolase variant of SEQ ID NO: 8 (N167T, S174T) (enzyme)
chain: B1 chain with Y69F, Y168F, C174T, E179D, C182A, R183A, R186K, R187A, Y218F
notes: as for B1
B16: alpha/beta hydrolase variant of SEQ ID NO: 32 (N167T, F168Y, S174C, D179E, A182C, A183R, K186R, A187R, F218Y, L287T, M289S) (enzyme)
chain: B1 chain with Y69F, L287T, M289S
notes: as for B1
B17: alpha/beta hydrolase variant of SEQ ID NO: 9 (N167T, S174C) (enzyme)
chain: B1 chain with Y69F, Y168F, E179D, C182A, R183A, R186K, R187A, Y218F
notes: as for B1
B18: alpha/beta hydrolase variant of SEQ ID NO: 30 (N167T, F168Y, S174C, D179E, A182C, A183R, K186R, A187R, F218Y, H251E) (enzyme)
chain: B1 chain with Y69F, H251E
notes: as for B1

Target: the molecule itself
Assay: Blue-Native-PAGE, oligomeric conformation (self-association of identical chains)
Source text: Comparison of the native molecular weight (oligomeric conformation) between single purified zearalenone-cleaving polypeptides was done via Blue-Native-PAGE. Dilutions of the elutes were supplied with not denaturating loading dye (e.g. 2× loading dye: 0.126 M tris(hydroxymethyl)aminomethan/hydrochloric acid pH 6.8, 20.0% glycerol, 4.0% Coomassie Blue G-250) and separated on a 4-15% polyacrylamid gel under native conditions (e.g. Mini-PROTEAN® Tetra Cell System, 1658004EDU+4-15% Mini-PROTEAN® TGX™ Precast Protein Gels, 4561083EDU, Bio-Rad Laboratories GmbH) (5× Anode Buffer: 0.125 M Tris(hydroxymethyl)aminomethane, 0.960 M Glycine, 1× Kathode Buffer: Anode Buffer+0.02% Coomassie Blue G250; 200 V, 40 minutes). The peptide bands were visualized by Coomassie staining. The oligomeric state of selected zearalenone-cleaving polypeptides was determined by size exclusion chromatography, SEC-MALS or X-Ray crystallography. Homo-dimers (e.g. SEQ ID NO. 1) migrated faster across the BN-PAGE gel matrix, while homo-tetramers (e.g. SEQ ID NO. 2-35) were retained in the gel matrix to a higher extent. The oligomeric conformation of the zearalenone-cleaving polypeptides was determined relatively to the migration of homo-dimeric and homo-tetrameric peptides.

Binding result, binds:
B1, B2, B3, B4, B5, B6, B7, B8, B9, B10, B11, B12, B13, B14, B15, B16, B17, B18
